The values below come from article PMC12623744 (Scientific Reports, 2025).

The target of one test is HVEM. The arrangement: method as in 2 sources, ref 11 = [11]; PMID 25087510; doi:10.1016/j.str.2014.06.013; 11. Liu W Mechanistic basis for functional promiscuity in the TNF and TNF receptor superfamilies: structure of the LIGHT:DcR3 assembly Structure 2014 22 1252 10.1016/j.str.2014.06.013 25087510 PMC4163 ||| ref 41 = [41]; PMID 20175993; doi:10.1016/j.bbrc.2010.02.119; 41. Morishige T Creation of a lysine-deficient LIGHT mutant with the capacity for site-specific pegylation and low affinity for a decoy receptor Biochem. Biophys. Res. Commun. 2010 393 888 893 10.1016. The conditions noted are these: other research group, read-out: Kd of HVEM/LIGHT complex, cited from earlier work.

Test [1] addresses T1, HVEM-His protein (Homo sapiens, UniProt Q92956).
T1 construct: purchased ACROBiosystems
T1 sequence (Q92956 39-283): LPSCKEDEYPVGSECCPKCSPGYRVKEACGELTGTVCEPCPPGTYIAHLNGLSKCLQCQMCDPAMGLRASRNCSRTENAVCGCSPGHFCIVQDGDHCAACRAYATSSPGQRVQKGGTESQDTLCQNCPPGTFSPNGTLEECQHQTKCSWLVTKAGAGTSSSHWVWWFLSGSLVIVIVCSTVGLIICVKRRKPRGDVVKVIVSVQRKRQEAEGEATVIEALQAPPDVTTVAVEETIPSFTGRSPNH
The test can be described thus: Spectral shift (SpS) affinity of peptides to HVEM. Format: binding. The conditions noted are these: spectral shift (Monolith X, 670/650 nm), 50 nM RED-tris-NTA labelled HVEM-His, ligand 2 µM to 6.1 pM, PBS-T pH 7.4 with 0.3 M NaCl, 25 °C; mean of triplicate; apparent, approximate value only. On the procedure:
Based on the computer analyses conducted for the designed peptides in complex with the HVEM, five compounds – peptides light1, light2, light3, light4, and light3_E178L were selected for experimental validation and their affinity to HVEM was evaluated using SpS.Fluorescence intensity was measured at 670 and 650 nm (Figure S4). […] Due to the fact that peptides at higher concentrations aggregated, it was not possible to fully determine the Kd. Therefore, only the apparent Kd values were determined and were used for HVEM binding strength comparison. Note that apparent Kd is only approximate value and should be used only for qualitative comparison.
SpS experiments were conducted using the Monolith X instrument (Nanotemper, Munich, Germany). Protein labelling was performed using the His-Tag Labeling Kit RED-tris-NTA 2nd Generation (Nanotemper, Munich, Germany). To prepare the fluorescent dye solution at concentration 0.1 µM, 2 µL of a 5 µM dye stock was diluted in 98 µL of deionized water. […] The mixtures were loaded into Monolith X-compatible capillary tubes, and fluorescence ratios (670/650 nm) were measured at 40% excitation power and average IR laser power at a temperature of 25 °C. Data were analyzed using MO.Control 2 software (version 2.5.4, NanoTemper, Munich, Germany). […]

Test [2] deals with T1, HVEM-His protein. Conditions: SpS technique; previously determined by the authors; read-out: Kd of LIGHT binding to HVEM; cited from earlier work.
The next test deals with LIGHT protein (UniProt O43557 1-240). The test can be described thus: spectral shift (SpS); Monolith X; HVEM-His labelled with His-Tag Labeling Kit RED-tris-NTA 2nd Generation, final 50 nM; peptides 2 µM to 6.1 pM; PBS-T (0.05% Tween-20, 0.3 M NaCl, pH 7.4); fluorescence ratio 670/650 nm; 25 °C; apparent Kd (peptides aggregated at higher concentrations). Conditions: both partners purified.

Where two headings read alike, the source gives them in different places.

B1: LIGHT: LIGHT protein, TNFSF ligand of HVEM (protein)
chain: MEESVVRPSVFVVDGQTDIPFTRLGRSHRRQSCSVARVGLGLLLLLMGAGLAVQGWFLLQLHWRLGEMVTRLPDGPAGSWEQLIQERRSHEVNPAAHLTGANSSLTGSGGPLLWETQLGLAFLRGLSYHDGALVVTKAGYYYIYSKVQLGGVGCPLGLASTITHGLYKRTPRYPEELELLVSQQSPCGRATSSSRVWWDSSFLGGVVHLEAGEKVVVRVLDERLVRLRDGTRSYFGAFMV
B1: the Kd on HVEM (ref 11) was 18.7 nM; on HVEM (ref 41), 1.5 nM; with HVEM-His protein [1] it was 920 nM; in the test with HVEM-His protein [2], 920 nM.

B2: HVEM-His protein (receptor, UniProt Q92956 39-202, looked up)
chain: LPSCKEDEYPVGSECCPKCSPGYRVKEACGELTGTVCEPCPPGTYIAHLNGLSKCLQCQMCDPAMGLRASRNCSRTENAVCGCSPGHFCIVQDGDHCAACRAYATSSPGQRVQKGGTESQDTLCQNCPPGTFSPNGTLEECQHQTKCSWLVTKAGAGTSSSHWV
modifications: labelled with RED-tris-NTA 2nd Generation dye on the His tag (spectral shift only)
notes: Herpes virus entry mediator (HVEM); No catalogue number printed; also called herpes virus entry mediator; source: bought: ACROBiosystems
Regarding B2, the Kd in the test with LIGHT protein was 920 nM.
